This is an account of results in IntAct's records for PubMed 35512704.

The labels stand for the following.
B1: Mothers against decapentaplegic homolog 4 (Homo sapiens), Q13485 (parent)
chain: MDNMSITNTPTSNDACLSIVHSLMCHRQGGESETFAKRAIESLVKKLKEKKDELDSLITAITTNGAHPSKCVTIQRTLDGRLQVAGRKGFPHVIYARLWRWPDLHKNELKHVKYCQYAFDLKCDSVCVNPYHYERVVSPGIDLSGLTLQSNAPSSMMVKDEYVHDFEGQPSLSTEGHSIQTIQHPPSNRASTETYSTPALLAPSESNATSTANFPNIPVASTSQPASILGGSHSEGLLQIASGPQPGQQQNGFTGQPATYHHNSTTTWTGSRTAPYTPNLPHHQNGHLQHHPPMPPHPGHYWPVHNELAFQPPISNHPAPEYWCSIAYFEMDVQVGETFKVPSSCPIVTVDGYVDPSGGDRFCLGQLSNVHRTEAIERARLHIGKGVQLECKGEGDVWVRCLSDHAVFVQSYYLDREAGRAPGDAVHKIYPSAYIKVFDLRQCHRQMQQQAATAQAAAAAQAAAVAGNIPGPGSVGGIAPAISLSAAAGIGVDDLRRLCILRMSFVKGWGPDYPRQSIKETPCWIEIHLHRALQLLDEVLHTMPIADPQPLD
partner: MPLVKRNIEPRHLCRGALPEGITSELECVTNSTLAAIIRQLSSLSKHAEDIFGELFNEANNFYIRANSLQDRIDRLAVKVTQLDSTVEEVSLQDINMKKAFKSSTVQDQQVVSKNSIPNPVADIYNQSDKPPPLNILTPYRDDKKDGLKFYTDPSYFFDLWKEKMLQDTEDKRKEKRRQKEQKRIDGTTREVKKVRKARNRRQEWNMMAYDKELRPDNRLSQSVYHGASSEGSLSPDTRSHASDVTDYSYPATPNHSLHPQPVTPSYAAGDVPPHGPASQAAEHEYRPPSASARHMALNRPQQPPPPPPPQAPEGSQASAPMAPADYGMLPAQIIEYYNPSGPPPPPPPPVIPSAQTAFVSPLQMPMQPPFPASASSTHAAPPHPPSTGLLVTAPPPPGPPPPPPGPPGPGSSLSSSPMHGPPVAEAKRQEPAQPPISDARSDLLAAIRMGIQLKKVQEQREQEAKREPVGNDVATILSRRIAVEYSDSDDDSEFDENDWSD
B2: Mothers against decapentaplegic homolog 4 (Homo sapiens), Q13485 (parent)
chain: B1 chain
partner: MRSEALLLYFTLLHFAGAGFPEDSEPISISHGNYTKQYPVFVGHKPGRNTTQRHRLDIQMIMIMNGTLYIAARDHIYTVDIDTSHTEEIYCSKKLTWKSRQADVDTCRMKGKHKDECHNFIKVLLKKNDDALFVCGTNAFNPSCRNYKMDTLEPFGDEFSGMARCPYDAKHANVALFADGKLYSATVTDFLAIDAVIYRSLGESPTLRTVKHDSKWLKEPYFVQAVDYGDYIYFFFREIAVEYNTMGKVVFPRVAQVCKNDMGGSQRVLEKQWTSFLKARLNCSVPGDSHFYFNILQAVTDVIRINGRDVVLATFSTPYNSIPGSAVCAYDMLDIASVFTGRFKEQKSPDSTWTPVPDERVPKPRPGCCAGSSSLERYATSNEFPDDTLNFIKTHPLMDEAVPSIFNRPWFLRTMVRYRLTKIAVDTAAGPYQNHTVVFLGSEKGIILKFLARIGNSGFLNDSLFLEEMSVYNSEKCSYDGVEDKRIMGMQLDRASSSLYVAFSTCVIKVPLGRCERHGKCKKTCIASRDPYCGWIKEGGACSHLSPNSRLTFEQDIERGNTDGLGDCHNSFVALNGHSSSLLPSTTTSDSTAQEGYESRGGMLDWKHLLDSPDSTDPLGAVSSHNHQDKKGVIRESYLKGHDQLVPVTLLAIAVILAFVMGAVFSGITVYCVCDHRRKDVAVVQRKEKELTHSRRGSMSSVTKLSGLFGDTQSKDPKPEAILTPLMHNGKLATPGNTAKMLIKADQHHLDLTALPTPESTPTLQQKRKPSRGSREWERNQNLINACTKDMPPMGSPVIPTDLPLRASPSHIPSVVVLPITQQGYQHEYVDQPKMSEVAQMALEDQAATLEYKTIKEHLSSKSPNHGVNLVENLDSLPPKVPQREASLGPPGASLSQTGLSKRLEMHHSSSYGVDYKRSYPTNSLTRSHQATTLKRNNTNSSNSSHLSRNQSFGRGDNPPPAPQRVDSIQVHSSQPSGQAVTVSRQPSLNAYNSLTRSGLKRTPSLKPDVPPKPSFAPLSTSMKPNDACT
B3: Mothers against decapentaplegic homolog 4 (Homo sapiens), Q13485 (parent)
chain: B1 chain
partner: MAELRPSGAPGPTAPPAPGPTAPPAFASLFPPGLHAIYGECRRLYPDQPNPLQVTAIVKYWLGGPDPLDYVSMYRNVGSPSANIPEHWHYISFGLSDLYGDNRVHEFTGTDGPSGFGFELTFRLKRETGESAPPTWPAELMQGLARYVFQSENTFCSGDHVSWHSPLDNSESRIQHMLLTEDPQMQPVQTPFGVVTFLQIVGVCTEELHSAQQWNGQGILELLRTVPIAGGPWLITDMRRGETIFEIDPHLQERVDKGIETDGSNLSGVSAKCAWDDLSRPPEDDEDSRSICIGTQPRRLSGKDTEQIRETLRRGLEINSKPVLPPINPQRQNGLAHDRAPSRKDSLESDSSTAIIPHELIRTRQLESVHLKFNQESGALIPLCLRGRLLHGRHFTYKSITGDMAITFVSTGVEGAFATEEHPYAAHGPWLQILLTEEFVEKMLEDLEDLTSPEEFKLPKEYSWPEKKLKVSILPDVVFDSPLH
B4: Mothers against decapentaplegic homolog 4 (Homo sapiens), Q13485 (parent)
chain: B1 chain
partner: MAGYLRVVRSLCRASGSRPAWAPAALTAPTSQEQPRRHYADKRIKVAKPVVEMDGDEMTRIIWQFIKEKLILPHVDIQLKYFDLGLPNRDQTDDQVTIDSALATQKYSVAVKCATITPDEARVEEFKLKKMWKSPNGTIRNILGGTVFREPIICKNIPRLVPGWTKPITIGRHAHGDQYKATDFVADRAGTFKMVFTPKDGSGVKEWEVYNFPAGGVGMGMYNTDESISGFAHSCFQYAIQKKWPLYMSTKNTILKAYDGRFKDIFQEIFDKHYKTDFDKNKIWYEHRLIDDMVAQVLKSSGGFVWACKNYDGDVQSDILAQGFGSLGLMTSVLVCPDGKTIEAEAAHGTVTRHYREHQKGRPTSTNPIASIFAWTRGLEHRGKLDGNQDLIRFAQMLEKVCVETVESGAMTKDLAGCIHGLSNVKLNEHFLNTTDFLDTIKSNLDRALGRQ
B5: Mothers against decapentaplegic homolog 4 (Homo sapiens), Q13485 (parent)
chain: B1 chain
partner: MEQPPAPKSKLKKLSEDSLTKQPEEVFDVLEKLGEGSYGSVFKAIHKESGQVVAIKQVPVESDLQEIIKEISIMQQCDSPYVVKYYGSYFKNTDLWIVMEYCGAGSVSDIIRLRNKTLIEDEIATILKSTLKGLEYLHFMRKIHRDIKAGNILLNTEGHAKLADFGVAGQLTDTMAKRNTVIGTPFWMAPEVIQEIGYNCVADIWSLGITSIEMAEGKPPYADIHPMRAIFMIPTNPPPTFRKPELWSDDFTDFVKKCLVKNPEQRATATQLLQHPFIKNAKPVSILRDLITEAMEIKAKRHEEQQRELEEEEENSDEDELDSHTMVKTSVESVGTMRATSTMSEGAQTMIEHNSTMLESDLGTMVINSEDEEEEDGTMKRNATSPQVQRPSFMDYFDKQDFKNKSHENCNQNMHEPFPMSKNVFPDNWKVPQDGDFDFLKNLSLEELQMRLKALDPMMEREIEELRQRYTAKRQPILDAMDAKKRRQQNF
B6: Mothers against decapentaplegic homolog 4 (Homo sapiens), Q13485 (parent)
chain: B1 chain
partner: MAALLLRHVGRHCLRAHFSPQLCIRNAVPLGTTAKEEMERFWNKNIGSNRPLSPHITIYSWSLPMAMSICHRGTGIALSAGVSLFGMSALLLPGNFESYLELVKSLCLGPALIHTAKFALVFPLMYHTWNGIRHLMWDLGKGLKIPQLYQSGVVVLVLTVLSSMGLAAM
B7: Mothers against decapentaplegic homolog 4 (Homo sapiens), Q13485 (parent)
chain: B1 chain
partner: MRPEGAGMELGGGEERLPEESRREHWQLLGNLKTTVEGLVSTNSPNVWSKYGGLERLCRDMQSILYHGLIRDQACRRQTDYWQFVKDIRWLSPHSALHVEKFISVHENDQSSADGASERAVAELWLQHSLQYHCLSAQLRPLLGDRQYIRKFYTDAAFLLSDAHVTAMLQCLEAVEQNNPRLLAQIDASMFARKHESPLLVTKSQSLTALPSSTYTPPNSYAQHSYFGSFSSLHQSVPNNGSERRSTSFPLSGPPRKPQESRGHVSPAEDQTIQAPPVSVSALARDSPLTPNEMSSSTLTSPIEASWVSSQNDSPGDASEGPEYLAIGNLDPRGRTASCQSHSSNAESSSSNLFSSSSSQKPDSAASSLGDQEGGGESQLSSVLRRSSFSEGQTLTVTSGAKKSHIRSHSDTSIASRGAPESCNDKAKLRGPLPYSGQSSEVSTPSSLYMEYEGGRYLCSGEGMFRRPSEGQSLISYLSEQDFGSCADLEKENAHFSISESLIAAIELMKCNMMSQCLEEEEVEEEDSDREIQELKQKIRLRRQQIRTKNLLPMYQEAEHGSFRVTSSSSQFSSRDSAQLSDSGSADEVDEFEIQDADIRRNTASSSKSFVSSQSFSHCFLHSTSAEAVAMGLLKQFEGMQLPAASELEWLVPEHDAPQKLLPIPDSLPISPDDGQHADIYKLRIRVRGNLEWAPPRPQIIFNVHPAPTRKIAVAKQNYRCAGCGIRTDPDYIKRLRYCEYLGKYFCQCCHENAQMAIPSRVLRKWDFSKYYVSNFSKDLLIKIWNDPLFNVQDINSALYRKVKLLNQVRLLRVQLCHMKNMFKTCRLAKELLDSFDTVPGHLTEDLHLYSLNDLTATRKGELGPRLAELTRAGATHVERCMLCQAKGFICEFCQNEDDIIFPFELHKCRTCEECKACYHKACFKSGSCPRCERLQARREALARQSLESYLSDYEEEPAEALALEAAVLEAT

The first assay covers variants of B1. Conditions: with wasf3_human WASF3, Q9UPY6.
D351H: the “effect of a mutation on the interaction” value is listed as “with no effect”.

In the next assay the parent is B1. Conditions: with wasf3_human WASF3, Q9UPY6. The source holds these as a separate data set.
For R361H, the “effect of a mutation on the interaction” value is given as “with no effect”.

Variants of B1 are the subject of the next assay. Conditions: with wasf3_human WASF3, Q9UPY6. The source holds these as a separate data set.
Consider R361C, for which the “effect of a mutation on the interaction” value was “with no effect”.

Variants of B2 are the subject of another assay. Conditions: with sem6a_human SEMA6A.
Consider R361C, for which the “effect of a mutation on the interaction” value was “with no effect”.

The next assay covers variants of B2. Conditions: with sem6a_human SEMA6A. This is another data set of the same source.
For the variant R361H, the “effect of a mutation on the interaction” value was “with no effect”.

In the next assay the parent is B2. Conditions: with sem6a_human SEMA6A. This is another data set of the same source.
Turning to D351H, the “effect of a mutation on the interaction” value is given as “with no effect”.

The variants in another assay derive from B2. Conditions: with sem6a_human SEMA6A. The source holds these as a separate data set.
For G386D, the “effect of a mutation on the interaction” value is given as “with no effect”.

Variants of B3 are the subject of the next assay. Conditions: with sufu_human SUFU.
D351H: the “effect of a mutation on the interaction” value is on record as “with no effect”.

The variants in the next assay derive from B3. Conditions: with sufu_human SUFU. The source holds these as a separate data set.
For the variant G386D, the “effect of a mutation on the interaction” value is listed as “with no effect”.

In a further assay the parent is B3. Conditions: with sufu_human SUFU. The source holds these as a separate data set.
For R361H, the “effect of a mutation on the interaction” value is “with no effect”.

In the next assay the parent is B3. Conditions: with sufu_human SUFU. The source holds these as a separate data set.
In the case of R361C, the “effect of a mutation on the interaction” value is on record as “with no effect”.

Variants of B4 are the subject of another assay. Conditions: with idhp_human IDH2, P48735.
With G386D, the “effect of a mutation on the interaction” value is reported as “with no effect”.

The variants in a further assay derive from B5. Conditions: with stk3_human STK3, Q13188.
On to D351H, for which the “effect of a mutation on the interaction” value is on record as “with no effect”.

Variants of B5 are the subject of another assay. Conditions: with stk3_human STK3, Q13188. The source holds these as a separate data set.
With G386D, the “effect of a mutation on the interaction” value is recorded as “with no effect”.

The variants in another assay derive from B5. Conditions: with stk3_human STK3, Q13188. This is another data set of the same source.
For R361C, the “effect of a mutation on the interaction” value is on record as “with no effect”.

A further assay covers variants of B5. Conditions: with stk3_human STK3, Q13188. The source holds these as a separate data set.
As for R361H, the “effect of a mutation on the interaction” value is reported as “with no effect”.

The variants in a further assay derive from B6. Conditions: with c560_human SDHC.
As to D351H, the “effect of a mutation on the interaction” value is on record as “with no effect”.

Another assay covers variants of B6. Conditions: with c560_human SDHC. The source holds these as a separate data set.
On to R361C, for which the “effect of a mutation on the interaction” value is “with no effect”.

Variants of B6 are the subject of another assay. Conditions: with c560_human SDHC. This is another data set of the same source.
In the case of R361H, the “effect of a mutation on the interaction” value was “with no effect”.

In a further assay the parent is B6. Conditions: with c560_human SDHC. The source holds these as a separate data set.
Consider G386D, for which the “effect of a mutation on the interaction” value is “with no effect”.

The variants in another assay derive from B7. Conditions: with rubic_human RUBCN.
As for D351H, the “effect of a mutation on the interaction” value was “with no effect”.

Variants of B7 are the subject of another assay. Conditions: with rubic_human RUBCN. This is another data set of the same source.
In the case of R361H, the “effect of a mutation on the interaction” value is recorded as “with no effect”.

Another assay covers variants of B7. Conditions: with rubic_human RUBCN. The source holds these as a separate data set.
As for R361C, the “effect of a mutation on the interaction” value is “with no effect”.
